Tests used:
[1] = molecular target: T1, 3-mercaptopropionic acid dioxygenase (Av3MDO) (Azotobacter vinelandii, UniProt C1DN94); experiment: X-ray crystal structure ([…] Å); competitive inhibition by O2 electrode steady-state kinetics; assay type: biochemical
T1 construct: gene Avin_30970; His-tag removed by thrombin; N- and C-termini not modelled

[2] = molecular target: Azotobacter vinelandii 3-mercaptopropionic acid dioxygenase (Azotobacter vinelandii); experiment: crystal structure; crystal form A, space group P3(1), 12 monomers in the asymmetric unit; 100 mM MES pH 6, 30% poly(acrylic acid sodium salt) 5100, 10% ethanol, 50 mM MgCl2, 22 °C; complex with 3HPA and chloride
[3] = molecular target: Azotobacter vinelandii 3-mercaptopropionic acid dioxygenase (Azotobacter vinelandii); experiment: crystal structure; crystal form B, space group P6(1)22, four monomers in the asymmetric unit; HEPES pH 7, pentaerythritol propoxylate, sodium thiocyanate, 22 °C; thiocyanate bound at the iron

T1 sequence (C1DN94 entry or part of it): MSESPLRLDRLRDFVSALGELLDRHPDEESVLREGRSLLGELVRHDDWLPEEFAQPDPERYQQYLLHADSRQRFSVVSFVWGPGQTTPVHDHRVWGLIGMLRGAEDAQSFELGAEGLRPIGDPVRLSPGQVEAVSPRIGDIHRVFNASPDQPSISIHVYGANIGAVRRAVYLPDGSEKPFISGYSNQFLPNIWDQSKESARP

| Ki [1] [µM] | stoichiometry N [2] | stoichiometry N [3] | Compound |
| --- | --- | --- | --- |
| 280 ± 26 |  |  | O=C(O)CCO [3HPA, 3-hydroxypropionic acid] |
|  | 2 | 2 | Azotobacter vinelandii 3-mercaptopropionic acid dioxygenase (enzyme) |
